Source: US20160215065A1 (Genentech, published 2016)
Several values for one entry are separate records, joined by “and”; a condition that tells them apart may be missing. Equal values may be shown once. Read-outs that look alike come from different tables or passages of the source.

T1: internally quenched fluorogenic peptide substrate with P1-methylarginine
T1 sequence: IRRSSYSFKK

T2: internally quenched fluorogenic peptide substrate with P1-arginine
T2 sequence: IRRSSYSFKK

T3: internally quenched fluorogenic peptide substrate with P1-methylarginine
T3 chain: IRRSSYSFKK

T4: internally quenched fluorogenic peptide substrate with P1-arginine
T4 chain: IRRSSYSFKK

T5: mouse active NSP4 (mA) (mouse, UniProt Q14B24 36-284)
T5 construct: mature; also called mA-NSP4; mA (NSP4)
T5 sequence (looked up): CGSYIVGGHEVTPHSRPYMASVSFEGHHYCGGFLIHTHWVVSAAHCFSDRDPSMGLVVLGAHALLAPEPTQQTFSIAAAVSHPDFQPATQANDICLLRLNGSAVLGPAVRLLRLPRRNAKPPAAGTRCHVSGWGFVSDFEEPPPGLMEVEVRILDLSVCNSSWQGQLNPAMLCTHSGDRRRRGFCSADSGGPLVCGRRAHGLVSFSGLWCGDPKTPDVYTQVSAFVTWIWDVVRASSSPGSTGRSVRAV

T6: mouse zymogen NSP4 (mZ) (mouse, UniProt Q14B24 36-284)
T6 construct: mature; Expressed in CHO cells; also called mZ-NSP4; mZ (NSP4); not shown: N-terminal FLAG tag cleavable by enteropeptidase (cleavage after Asp-Asp-Asp-Asp-Lys)
T6 sequence (looked up): T5 sequence (looked up)

T7: human active NSP4 (hA) (human, UniProt Q6UWY2 34-283)
T7 construct: range 34-283; For crystals partly deglycosylated with Endo F3 (FFR-cmk complex) or fully glycosylated (VLK-cmk complex); also called hA-NSP4; hA (NSP4)
T7 sequence (looked up): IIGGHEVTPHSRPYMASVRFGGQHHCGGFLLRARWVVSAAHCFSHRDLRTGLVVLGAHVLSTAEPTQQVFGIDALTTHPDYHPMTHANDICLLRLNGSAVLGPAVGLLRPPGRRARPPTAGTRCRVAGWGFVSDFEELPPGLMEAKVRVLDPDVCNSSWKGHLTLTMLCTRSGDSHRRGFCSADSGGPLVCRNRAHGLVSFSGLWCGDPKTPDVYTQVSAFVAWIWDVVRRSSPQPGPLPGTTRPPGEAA

T8: mouse active NSP4 (mA) (mouse), Q14B24
T8 chain: T5 sequence (looked up)

B1: human active NSP4 (hA) (protein)
chain: T7 sequence (looked up)
B2: human wild-type NSP4 produced in CHO cells, activated (protein)
chain: T7 sequence (looked up)
B3: anti-NSP4 antibody 2-4 (antibody, human IgG1, V domains shown)
VH: EVQLVESGGGLVQPGGSLRLSCAASGFTFSDYWISWVRQAPGKGLEWVAGISPNNGDTYYADSVKGRFTISADTSKNTAYLQMNSLRAEDTAVYYCAREDDDERDYAMDYWGQGTLVTVSS
VL: DIQMTQSPSSLSASVGDRVTITCRASQDVSTAVAWYQQKPGKAPKLLIYSASFLYSGVPSRFSGSGSGTDFTLTISSLQPEDFATYYCQQSYTTPPTFGQGTKVEIKR
notes: also called clone 2-4
B4: anti-NSP4 antibody 2-5 (antibody, human IgG1, V domains shown)
VH: EVQLVESGGGLVQPGGSLRLSCAASGFTFTGYGISWVRQAPGKGLEWVGWIYPASGATYYADSVKGRFTISADTSKNTAYLQMNSLRAEDTAVYYCARHRAFDWYPYYIGSSVMDYWGQGTLVTVSS
VL: B3 VL
notes: also called clone 2-5
B5: anti-NSP4 antibody 5-3 (antibody, V domains shown)
VH: EVQLVESGGGLVQPGGSLRLSCAASGFTFSGNDISWVRQAPGKGLEWVAGISPYGGSTYYADSVKGRFTISADTSKNTAYLQMNSLRAEDTAVYYCARRVSFYSRHAGMDYWGQGTLVTVSS
VL: B3 VL
B6: anti-NSP4 antibody 4-2 (antibody, human IgG1, V domains shown)
VH: EVQLVESGGGLVQPGGSLRLSCAASGFTFSGSDISWVRQAPGKGLEWVGEIYPSNGDTYYADSVKGRFTISADTSKNTAYLQMNSLRAEDTAVYYCARSVRPSWWAMDYWGQGTLVTVSS
VL: B3 VL
notes: also called clone 4-2
B7: anti-NSP4 antibody 2-1 (antibody, human IgG1, V domains shown)
VH: EVQLVESGGGLVQPGGSLRLSCAASGFTFTDYSIHWVRQAPGKGLEWVAEIYPYSGDTYYADSVKGRFTISADTSKNTAYLQMNSLRAEDTAVYYCARDGDGWFDWAMDYWGQGTLVTVSS
VL: B3 VL
notes: also called clone 2-1
B8: anti-NSP4 antibody 3-2 (antibody, human IgG1, V domains shown)
VH: EVQLVESGGGLVQPGGSLRLSCAASGFTFSDYSISWVRQAPGKGLEWVGEINPAGGATYYADSVKGRFTISADTSKNTAYLQMNSLRAEDTAVYYCARGDFPFWSDAYYVMDYWGQGTLVTVSS
VL: B3 VL
notes: also called Ab 3-2; clone 3-2
B9: anti-NSP4 antibody 1-3 (antibody, human IgG1, V domains shown)
VH: EVQLVESGGGLVQPGGSLRLSCAASGFTFSDNWISWVRQAPGKGLEWVGYIYPASGYTDYADSVKGRFTISADTSKNTAYLQMNSLRAEDTAVYYCASDSPHAYWYAMDYWGQGTLVTVSS
VL: B3 VL
B10: anti-NSP4 antibody 4-4 (antibody, human IgG1, V domains shown)
VH: EVQLVESGGGLVQPGGSLRLSCAASGFTFTSTSIHWVRQAPGKGLEWVAEITPHGGYTNYADSVKGRFTISADTSKNTAYLQMNSLRAEDTAVYYCARGRTKWGWLYGMDYWGQGTLVTVSS
VL: B3 VL
notes: also called clone 4-4
B11: anti-NSP4 antibody 1-2 (antibody, human IgG1, V domains shown)
VH: EVQLVESGGGLVQPGGSLRLSCAASGFTFSGYSIHWVRQAPGKGLEWVAGISPTNGYTDYADSVKGRFTISADTSKNTAYLQMNSLRAEDTAVYYCARLVFYRGVMDYWGQGTLVTVSS
VL: B3 VL
B12: anti-NSP4 antibody 2-3 (antibody, human IgG1, V domains shown)
VH: EVQLVESGGGLVQPGGSLRLSCAASGFTFTDSDISWVRQAPGKGLEWVAWISPSDGATDYADSVKGRFTISADTSKNTAYLQMNSLRAEDTAVYYCAHEASDDDYAIDYWGQGTLVTVSS
VL: B3 VL
notes: also called clone 2-3
B13: anti-NSP4 antibody 1-5 (antibody, human IgG1, V domains shown)
VH: EVQLVESGGGLVQPGGSLRLSCAASGFTFTNNSISWVRQAPGKGLEWVGAISPNNGSTYYADSVKGRFTISADTSKNTAYLQMNSLRAEDTAVYYCARNAWHYSWVGVMDYWGQGTLVTVSS
VL: B3 VL
B14: anti-NSP4 antibody 5-4 (antibody, V domains shown)
VH: EVQLVESGGGLVQPGGSLRLSCAASGFTFTSYAISWVRQAPGKGLEWVAGISPSNGYTNYADSVKGRFTISADTSKNTAYLQMNSLRAEDTAVYYCARAGRWTHSDIDYWGQGTLVTVSS
VL: B3 VL
B15: anti-NSP4 antibody 1-1 (antibody, human IgG1, V domains shown)
VH: EVQLVESGGGLVQPGGSLRLSCAASGFTFSGSWISWVRQAPGKGLEWVGTISPYNGSTYYADSVKGRFTISADTSKNTAYLQMNSLRAEDTAVYYCARVLRPKVYASVMDYWGQGTLVTVSS
VL: B3 VL
B16: anti-NSP4 antibody 5-1 (antibody, human IgG1, V domains shown)
VH: EVQLVESGGGLVQPGGSLRLSCAASGFTFSGSGIHWVRQAPGKGLEWVAWISPTGGNTYYADSVKGRFTISADTSKNTAYLQMNSLRAEDTAVYYCAKSLFHNVAFDYWGQGTLVTVSS
VL: B3 VL
B17: anti-NSP4 antibody 2-2 (antibody, human IgG1, V domains shown)
VH: EVQLVESGGGLVQPGGSLRLSCAASGFTFSSTAISWVRQAPGKGLEWVGEIYPSDGYTDYADSVKGRFTISADTSKNTAYLQMNSLRAEDTAVYYCARVKWAVSSLGVMDYWGQGTLVTVSS
VL: B3 VL
notes: also called clone 2-2
B18: anti-NSP4 antibody 3-5 (antibody, human IgG1, V domains shown)
VH: EVQLVESGGGLVQPGGSLRLSCAASGFTFSDNDISWVRQAPGKGLEWVGSISPDNGDTNYADSVKGRFTISADTSKNTAYLQMNSLRAEDTAVYYCARDDVPAVFTSAMDYWGQGTLVTVSS
VL: B3 VL
notes: also called Ab 3-5; Ab35

Key:
[1] = system: T1, internally quenched fluorogenic peptide substrate with P1-methylarginine
[2] = system: T2, internally quenched fluorogenic peptide substrate with P1-arginine
[3] = target: T3, internally quenched fluorogenic peptide …
[4] = target: T4, internally quenched fluorogenic peptide …
[5] = target: T5, mouse active NSP4 (mA); assay: BLI affinity class in summary table
[6] = target: T6, mouse zymogen NSP4 (mZ); assay: BLI affinity class in summary table
[7] = target: T7, human active NSP4 (hA); assay: BLI affinity class in summary table
[8] = target: human zymogen NSP4 (hZ) (human) (UniProt Q6UWY2); assay: BLI affinity class in summary table
[9] = target: human zymogen NSP4 (hZ) (human) (UniProt Q6UWY2); assay: competition phage ELISA (phage IC50); soluble hZ-NSP4 against plate-coated NSP4
[10] = target: T8, mouse active NSP4 (mA) (mouse), Q14B24; assay: competition phage ELISA (phage IC50); soluble mA-NSP4 against plate-coated NSP4; details: remark: other sources report otherwise
[11] = target: T8, mouse active NSP4 (mA) (mouse), Q14B24; assay: BLI affinity class in summary table; details: remark: other sources report otherwise

Molecule | Kd [6] | Kd [7] | Kd [8] | IC50 [9] | other results
Factor Xa |  |  |  |  | cleavage of fluorogenic peptide with P1-methylarginine [1]: factor Xa, with a canonical S1 pocket could only cleave unmodified P1-Arg substrate; cleavage of fluorogenic peptide with P1-arginine [2]: factor Xa, with a canonical S1 pocket could only cleave unmodified P1-Arg substrate
B1 |  |  |  |  | cleavage of fluorogenic peptide with P1-methylarginine [3]: NSP4 could indeed cleave after methylarginine; kcat/KM of fluorogenic peptide cleavage [4]: WT (BEVS) kcat/KM=1.1×10^4±2.1×10^3 M^-1 s^-1
B2 |  |  |  |  | kcat/KM of fluorogenic peptide cleavage [4]: WT (CHO) kcat/KM=7.5×10^3 ±1.1×10^3 M^-1s^-1
B3 | < 50 nM | < 50 nM | < 50 nM | 2.3 nM | Kd [5]: < 50 nM
B4 | < 50 nM |  | < 50 nM | 22 nM | 
B5 |  |  |  |  | IC50 [10]: 319 nM; Kd [11]: < 50 nM
B6 |  | < 50 nM | > 50 nM and < 1000 nM |  | 
B7 | < 50 nM | < 50 nM | < 50 nM | 7.62 nM | Kd [5]: < 50 nM
B8 | < 50 nM |  |  |  | Kd [5]: < 50 nM
B9 |  |  | > 50 nM and < 1000 nM | 52 nM | 
B10 |  | < 50 nM | > 50 nM and < 1000 nM |  | 
B11 |  |  | < 50 nM | 22.1 nM | 
B12 | < 50 nM | < 50 nM | < 50 nM | 3.07 nM | Kd [5]: < 50 nM
B13 |  |  | > 50 nM and < 1000 nM | 114 nM | 
B14 |  |  |  |  | IC50 [10]: 60.5 nM; Kd [11]: < 50 nM
B15 |  |  | > 50 nM and < 1000 nM | 155 nM | 
B16 |  |  |  |  | IC50 [10]: 9.93 nM; Kd [11]: < 50 nM
B17 | < 50 nM |  | < 50 nM | 10.4 nM | 
B18 | < 50 nM | < 50 nM | < 50 nM |  | Kd [5]: < 50 nM
